{
  "source": "paper PMC10154249",
  "about": "“Unique progerin C-terminal peptide ameliorates Hutchinson–Gilford progeria syndrome phenotype by rescuing BUBR1” (Nature Aging, 2023)",
  "molecules": {"B1": {"name": "progerin (protein)", "chain": "METPSQRRATRSGAQASSTPLSPTRITRLQEKEDLQELNDRLAVYIDRVRSLETENAGLRLRITESEEVVSREVSGIKAAYEAELGDARKTLDSVAKERARLQLELSKVREEFKELKARNTKKEGDLIAAQARLKDLEALLNSKEAALSTALSEKRTLEGELHDLRGQVAKLEAALGEAKKQLQDEMLRRVDAENRLQTMKEELDFQKNIYSEELRETKRRHETRLVEIDNGKQREFESRLADALQELRAQHEDQVEQYKKELEKTYSAKLDNARQSAERNSNLVGAAHEELQQSRIRIDSLSAQLSQLQKQLAAKEAKLRDLEDSLARERDTSRRLLAEKEREMAEMRARMQQQLDEYQELLDIKLALDMEIHAYRKLLEGEEERLRLSPSPTSQRSRGRASSHSSQTQGGGSVTKKRKLESTESRSSFSQHARTSGRVAVEEVDEEGKFVRLRNKSNEDQSMGNWQIKRQNGDDPLLTYRFPPKFTLKAGQVVTIWAAGAGATHSPPTDLVWKAQNTWGCGNSLRTALINSTGEEVAMRKLVRSVTVVEDDEDEDGDDLLHHHHGSHCSSSGDPAEYNLRSRTVLCGTCGQPADKASASGSGAQSPQNCSIM", "modifications": "left off: GST, end not stated, kept"}, "B2": {"name": "mVenus-progerin (protein)", "chain": "METPSQRRATRSGAQASSTPLSPTRITRLQEKEDLQELNDRLAVYIDRVRSLETENAGLRLRITESEEVVSREVSGIKAAYEAELGDARKTLDSVAKERARLQLELSKVREEFKELKARNTKKEGDLIAAQARLKDLEALLNSKEAALSTALSEKRTLEGELHDLRGQVAKLEAALGEAKKQLQDEMLRRVDAENRLQTMKEELDFQKNIYSEELRETKRRHETRLVEIDNGKQREFESRLADALQELRAQHEDQVEQYKKELEKTYSAKLDNARQSAERNSNLVGAAHEELQQSRIRIDSLSAQLSQLQKQLAAKEAKLRDLEDSLARERDTSRRLLAEKEREMAEMRARMQQQLDEYQELLDIKLALDMEIHAYRKLLEGEEERLRLSPSPTSQRSRGRASSHSSQTQGGGSVTKKRKLESTESRSSFSQHARTSGRVAVEEVDEEGKFVRLRNKSNEDQSMGNWQIKRQNGDDPLLTYRFPPKFTLKAGQVVTIWAAGAGATHSPPTDLVWKAQNTWGCGNSLRTALINSTGEEVAMRKLVRSVTVVEDDEDEDGDDLLHHHHGSHCSSSGDPAEYNLRSRTVLCGTCGQPADKASASGSGAQSPQNCSIM", "modifications": "left off: mVenus, end not stated, kept"}},
  "key": {"[1]": {"test_system": "IMR90 cells", "assay": "Ki67 immunofluorescence of IMR90 cells", "format": "cell-based, human", "settings": "Fig.1k, IMR90, Vector 67, 75, 60, P vs Vector: BUBR1 0.803, progerin 0.0018", "procedure": "(§1) Immunofluorescence was performed as described previously. Cells were plated on cover slips in 12-well plates, left overnight before the treatment. Cells were fixed in 1% formaldehyde in culture medium for 10 min at 37 °C and permeabilized with 0.2% Triton X-100 in PBS for 10 min at room temperature. Cells were washed twice in PBS and blocked for 1 h with 5% BSA in PBS and then incubated with primary antibodies at 4 °C overnight, washed three times in PBS and incubated with secondary antibodies for 1 h at room temperature. Cell nuclei were counterstained with a 500 nM concentration of 4,6-diamidino-2-phenylindole (DAPI) (Sigma). Images were acquired by a fluorescence microscope (OLYMPUS FV-1000, Carl Zeiss LSM880 or Leica DMi8) and analyzed with software NIS-Elements AR v.5.0.1 (Nikon), FLUOVIEW v.4.2b (OLYMPUS), ZEN v.2.3 SP1 (Carl Zeiss) and Leica Application Suite X v.3.6.0.24 (Leica). Cells were quantified by investigators who were blinded to the identity of the analyzed cell."}, "[2]": {"test_system": "PTBP1–BUBR1 mRNA 3′-UTR", "assay": "RIP assay of PTBP1 and BUBR1 mRNA 3′-UTR in HEK-293T cells", "format": "cell-based", "settings": "Fig. 4n, PTBP1+progerin, P=0.0002 vs PTBP1", "procedure": "RIP and RNA pulldown assays were performed as previously described. The RIP experiment was carried out using the EZ-Magna RIP Kit (Millipore, catalog no. 17-701). The coprecipitated RNAs were extracted through Trizol reagent and detected by RT-PCR. The primer sequences for PCR, synthesized by Comate Bioscience, were as follows:\nBUBR1-3′UTR_fwd (5′-[…]-3′) and BUBR1-3′UTR_rev (5′- […]-3′)."}, "[3]": {"test_system": "IMR90 and HGADFN003 cells", "assay": "Metaphase chromosome spread assay, aneuploid cells", "format": "cell-based, human", "settings": "Fig.1p, IMR90, Vector 6, 5, 8", "procedure": "For the metaphase chromosome spread assay, 1.5 × 10^6 cells were seeded in a 6 cm dish and incubated for 24 h with fresh medium. Then, colchicine was added to a final concentration of 0.2 μg ml^–1 and the cells were incubated at 37 °C for 2 h. After digestion, we collected and rinsed the cells with PBS. The cells were centrifuged at 160g for 10 min. Then, 1 M KCl was added to a final concentration of 0.075 mol l^–1 and the samples were incubated at 37 °C for 20 min. The cells were centrifuged, and the supernatant aspirated. The pellet was resuspended, and 1 ml methanol:glacial acetic acid (3:1) solution was added. The sample was rested at room temperature for 10 min. Then, the cells were centrifuged at 160g for 10 min. The supernatant was aspirated, and the pellet resuspended in 1 ml fixative for 30 min. The cells were centrifuged and the pellet was suspended in 1 ml fixative again for 30 min. The cells were centrifuged at 160g for 10 min and the supernatant aspirated. The pellet was then resuspended in a small volume of fixative (typically less than 500 μl) until the cell suspension appeared lightly milky. A small quantity of the cell suspension was held vertically in a pipette with the end about 10 cm above the slide. A single drop was released from this height onto the slide and allowed to air dry. The cells were then incubated with 500 nM of DAPI (Invitrogen) for 10 min. Slides were examined with an Olympus BX53 fluorescence microscope and the images were captured by using the Olympus IPP v.7.0 software. Aneuploid cells were quantified by investigators who were blinded to the identity of the analyzed cell."}, "[4]": {"test_system": "IMR90 cells", "assay": "SA-β-gal staining of IMR90 cells (progerin, BUBR1, shBUBR1)", "format": "cell-based, human", "settings": "Fig.1i", "procedure": "SA-β-gal staining was performed as previously described. Cells were fixed in 0.5% glutaraldehyde for 15 min at room temperature, washed three times with PBS (pH 6.0) containing 1 mM MgCl2 and exposed overnight 37 °C to containing 1 mg ml^–1 5-bromo-4-chloro-3-indolyl-β-D-galactopyranoside (MCE, catalog no. HY-15934), 0.12 mM potassium ferrocyanide (Sigma, catalog no. P3289), 0.12 mM potassium ferricyanide (Sigma, catalog no. P8131) and 1 mM MgCl2 PBS buffer (pH 6.0). Cells were washed three times with H2O and observed under a microscope (OLYMPUS CKX53). SA-β-gal positive cells were quantified by investigators who were blinded to the identity of the analyzed cell."}, "[5]": {"test_system": "BUBR1 kinetochore localization in H1299 cells", "assay": "Immunofluorescence, abnormal localization of BUBR1 in H1299 cells", "format": "cell-based", "settings": "Fig. 3h, H1299, Vector 7, 11, 14, P=0.0008 vs Vector", "procedure": "as §1"}, "[6]": {"test_system": "BUBR1", "assay": "BUBR1 nuclear membrane localization in IMR90, HGADFN003 or H1299 cells", "format": "cell-based, human", "settings": "Fig. 2c", "procedure": "as §1"}},
  "data": [
    {"molecule": "B1", "values": [
      {"measurement": "Relative percentage of Ki67 positive cells", "setting": "[1]; replicate 1", "result": 27, "unit": "%"},
      {"measurement": "Relative percentage of Ki67 positive cells", "setting": "[1]; replicate 2", "result": 31, "unit": "%"},
      {"measurement": "Relative percentage of Ki67 positive cells", "setting": "[1]; replicate 3", "result": 35, "unit": "%"},
      {"measurement": "PTBP1 enrichment on BUBR1-3'UTR (2-ΔΔCt)", "setting": "[2]; replicate 1", "result": 8.488},
      {"measurement": "PTBP1 enrichment on BUBR1-3'UTR (2-ΔΔCt)", "setting": "[2]; replicate 2", "result": 7.488},
      {"measurement": "PTBP1 enrichment on BUBR1-3'UTR (2-ΔΔCt)", "setting": "[2]; replicate 3", "result": 7.699},
      {"measurement": "Relative percentage of aneuploid cells", "setting": "[3]; replicate 1", "result": 42, "unit": "%"},
      {"measurement": "Relative percentage of aneuploid cells", "setting": "[3]; replicate 2", "result": 38, "unit": "%"},
      {"measurement": "Relative percentage of aneuploid cells", "setting": "[3]; replicate 3", "result": 46, "unit": "%"},
      {"measurement": "Relative percentage of SA-β-gal positive cells", "setting": "[4]; Vector 2, 1, 2, P vs Vector: BUBR1 0.2302, progerin 0.0003, replicate 1", "result": 40, "unit": "%"},
      {"measurement": "Relative percentage of SA-β-gal positive cells", "setting": "[4]; Vector 2, 1, 2, P vs Vector: BUBR1 0.2302, progerin 0.0003, replicate 2", "result": 50, "unit": "%"},
      {"measurement": "Relative percentage of SA-β-gal positive cells", "setting": "[4]; Vector 2, 1, 2, P vs Vector: BUBR1 0.2302, progerin 0.0003, replicate 3", "result": 39, "unit": "%"},
      {"measurement": "Relative percentage of the number of abnormal localization cells of BUBR1", "setting": "[5]; replicate 1", "result": 38, "unit": "%"},
      {"measurement": "Relative percentage of the number of abnormal localization cells of BUBR1", "setting": "[5]; replicate 2", "result": 37, "unit": "%"},
      {"measurement": "Relative percentage of the number of abnormal localization cells of BUBR1", "setting": "[5]; replicate 3", "result": 32, "unit": "%"}
    ]},
    {"molecule": "B2", "values": [
      {"measurement": "BUBR1 nuclear membrane localization of injected cells", "setting": "[6]; mVenus 1, 2, 2, P<0.0001, replicate 1", "result": 97, "unit": "%"},
      {"measurement": "BUBR1 nuclear membrane localization of injected cells", "setting": "[6]; mVenus 1, 2, 2, P<0.0001, replicate 2", "result": 95, "unit": "%"},
      {"measurement": "BUBR1 nuclear membrane localization of injected cells", "setting": "[6]; mVenus 1, 2, 2, P<0.0001, replicate 3", "result": 94, "unit": "%"}
    ]}
  ]
}
